Assay results as given in patent US20240299493A1 (ACCELERON PHARMA, published 2024).

Tests used:
GDF11 [1] = target: T1, GDF11 (UniProt O95390 299-407); experiment: cell-based or functional assay
T1 sequence (looked up): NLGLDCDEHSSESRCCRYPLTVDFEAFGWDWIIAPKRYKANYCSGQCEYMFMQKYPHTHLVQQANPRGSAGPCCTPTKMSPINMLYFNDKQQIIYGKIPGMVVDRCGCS

activin A [2] = target: T2, activin A (UniProt P08476 311-426); experiment: cell-based or functional assay
T2 construct: also called ActA
T2 sequence (looked up): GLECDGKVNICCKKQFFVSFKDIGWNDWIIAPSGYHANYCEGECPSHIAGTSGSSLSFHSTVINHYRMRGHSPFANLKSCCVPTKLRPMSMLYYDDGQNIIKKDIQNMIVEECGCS

GDF11 [3] = target: T1, GDF11; experiment: Biacore; Fc fusion captured by anti-hFc antibody, ligand flowed
Description: (§1) Binding of certain ActRIIB-Fc proteins and ActRIIB variant Fc fusion polypeptides to ligands was tested in a Biacore™ assay.
(§2) The ActRIIB-Fc variants or wild-type protein were captured onto the system using an anti-hFc antibody. Ligands were injected and flowed over the captured receptor proteins.

activin A [4] = target: T2, activin A; experiment: as above
Description: as §1, §2

GDF8 = target: T3, GDF8 (UniProt O14793 267-375); experiment: as above
T3 construct: also called myostatin
T3 sequence (looked up): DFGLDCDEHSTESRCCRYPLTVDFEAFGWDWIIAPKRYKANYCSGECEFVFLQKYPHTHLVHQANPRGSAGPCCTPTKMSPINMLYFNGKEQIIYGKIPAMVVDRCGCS
Description: as §1, §2

ActRIIB-Fc A64 20-134 (Fc fusion)
GDF11 Inhibition Activity (KI) (GDF11 [1]): 1000 nM | Activin Inhibition Activity (KI) (activin A [2]): 1000 nM

B1: ActRIIB(A24N 20-134)-hFc (Fc fusion)
chain: GRGENETRECIYYNANWELERTNQSGLERCEGEQDKRLHCYASWRNSSGTIELVKKGCWLDDFNCYDRQECVATEENPQVYFCCCEGNFCNERFTHLPEAGGPEVTYEPPPTAPTGGGTHTCPPCPAPELLGGPSVFLFPPKPKDTLMISRTPEVTCVVVDVSHEDPEVKFNWYVDGVEVHNAKTKPREEQYNSTYRVVSVLTVLHQDWLNGKEYKCKVSNKALPVPIEKTISKAKGQPREPQVYTLPPSREEMTKNQVSLTCLVKGFYPSDIAVEWESNGQPENNYKTTPPVLDSDGSFFLYSKLTVDKSRWQQGNVFSCSVMHEALHNHYTQKSLSLSPGK
modifications: A24N creates an N-linked glycosylation sequence (N-E-T), paragraph 96
notes: also called A24N variant
Kd (GDF11 [3]): 0.0519 nM | koff (GDF11 [3]): 6.35e-05 s⁻¹ | Kd (activin A [4]): 0.104 nM | koff (activin A [4]): 0.000346 s⁻¹ | kon (activin A [4]): 3.34e+06 M⁻¹ s⁻¹

B2: ActRIIB(R64K 20-129)-hFc (Fc fusion)
chain: GRGEAETRECIYYNANWELERTNQSGLERCEGEQDKRLHCYASWKNSSGTIELVKKGCWLDDFNCYDRQECVATEENPQVYFCCCEGNFCNERFTHLPEAGGPEVTYEPPTGGGTHTCPPCPAPELLGGPSVFLFPPKPKDTLMISRTPEVTCVVVDVSHEDPEVKFNWYVDGVEVHNAKTKPREEQYNSTYRVVSVLTVLHQDWLNGKEYKCKVSNKALPVPIEKTISKAKGQPREPQVYTLPPSREEMTKNQVSLTCLVKGFYPSDIAVEWESNGQPENNYKTTPPVLDSDGSFFLYSKLTVDKSRWQQGNVFSCSVMHEALHNHYTQKSLSLSPGK
Kd (activin A [4]): 0.0841 nM | koff (activin A [4]): 0.000628 s⁻¹ | kon (activin A [4]): 7.46e+06 M⁻¹ s⁻¹ | Kd (GDF8): 2.15 nM | koff (GDF8): 0.000209 s⁻¹
